According to patent US20230192842A1 (published 2023):

How the values were obtained:
Assay in all cases: cell-based or functional assay
[1] = biological target: human CLDN3 N148A mutant on RKO KO cells (human) (UniProt O15551)
[2] = biological target: human CLDN4 with C-terminal monomeric GFP tag on RKO-KO cells (human) (UniProt O14493)
[3] = biological target: human CLDN3 F34A mutant on RKO KO cells (human) (UniProt O15551)
[4] = biological target: human CLDN3 I39A mutant on RKO KO cells (human) (UniProt O15551)
[5] = biological target: human CLDN3 Q43A mutant on RKO KO cells (human) (UniProt O15551)
[6] = biological target: human CLDN9 with C-terminal monomeric GFP tag on RKO-KO cells (human) (UniProt O95484)
human CLDN9 with C-terminal monomeric GFP tag on RKO-KO cells (human), sequence (O95484 whole entry): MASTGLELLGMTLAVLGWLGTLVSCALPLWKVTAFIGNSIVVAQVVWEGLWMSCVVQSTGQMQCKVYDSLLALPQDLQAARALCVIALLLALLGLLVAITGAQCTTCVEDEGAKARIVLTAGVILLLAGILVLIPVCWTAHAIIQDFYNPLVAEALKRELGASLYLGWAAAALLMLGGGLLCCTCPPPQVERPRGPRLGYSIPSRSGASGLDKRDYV

[7] = biological target: human CLDN3 R157A mutant on RKO KO cells (human) (UniProt O15551)
[8] = biological target: human CLDN3 K156A mutant on RKO KO cells (human) (UniProt O15551)
[9] = biological target: T1, human CLDN6 with C-terminal monomeric GFP tag on RKO-KO cells (human) (UniProt P56747)
T1 sequence (looked up): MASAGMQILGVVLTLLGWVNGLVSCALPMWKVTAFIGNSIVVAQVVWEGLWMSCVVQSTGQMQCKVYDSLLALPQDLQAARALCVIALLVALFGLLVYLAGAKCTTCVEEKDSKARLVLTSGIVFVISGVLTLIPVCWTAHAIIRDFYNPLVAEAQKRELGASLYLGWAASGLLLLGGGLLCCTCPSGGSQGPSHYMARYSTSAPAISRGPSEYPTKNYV

[10] = biological target: T2, human CLDN3 E153A mutant on RKO KO cells (human, UniProt O15551 1-220)
T2 construct: Single-point alanine mutant, monoclonal RKO KO line with GFP
T2 chain: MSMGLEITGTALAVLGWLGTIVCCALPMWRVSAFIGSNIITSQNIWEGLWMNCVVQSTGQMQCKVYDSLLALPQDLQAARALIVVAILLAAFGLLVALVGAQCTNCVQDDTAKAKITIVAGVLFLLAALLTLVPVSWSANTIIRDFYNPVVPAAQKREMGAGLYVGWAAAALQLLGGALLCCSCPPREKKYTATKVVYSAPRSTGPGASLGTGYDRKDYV

[11] = biological target: human CLDN3 P152A mutant on RKO KO cells (human) (UniProt O15551)
[12] = biological target: T3, human CLDN3 N38A mutant on RKO KO cells (human, UniProt O15551 1-220)
T3 construct: Single-point alanine mutant, monoclonal RKO KO line with GFP
T3 chain: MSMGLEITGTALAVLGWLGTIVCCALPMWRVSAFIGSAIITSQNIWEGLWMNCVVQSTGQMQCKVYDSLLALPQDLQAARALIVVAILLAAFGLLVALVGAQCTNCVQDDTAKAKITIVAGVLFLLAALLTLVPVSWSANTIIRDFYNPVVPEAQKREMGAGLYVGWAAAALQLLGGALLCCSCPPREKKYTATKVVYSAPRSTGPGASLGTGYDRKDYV

[13] = biological target: human CLDN3 P149A mutant on RKO KO cells (human) (UniProt O15551)
[14] = biological target: human CLDN3 S42A mutant on RKO KO cells (human) (UniProt O15551)
[15] = biological target: human CLDN3 Q155A mutant on RKO KO cells (human) (UniProt O15551)
[16] = biological target: human CLDN3 V150A mutant on RKO KO cells (human) (UniProt O15551)
[17] = biological target: human CLDN3 with C-terminal monomeric GFP tag on RKO-KO cells (human) (UniProt O15551)
[18] = biological target: human CLDN3 I45A mutant on RKO KO cells (human) (UniProt O15551)
[19] = biological target: mouse CLDN3 with C-terminal monomeric GFP tag on RKO-KO cells (mouse) (UniProt Q9Z0G9)
mouse CLDN3 with C-terminal monomeric GFP tag on RKO-KO cells (mouse), sequence (Q9Z0G9 whole entry): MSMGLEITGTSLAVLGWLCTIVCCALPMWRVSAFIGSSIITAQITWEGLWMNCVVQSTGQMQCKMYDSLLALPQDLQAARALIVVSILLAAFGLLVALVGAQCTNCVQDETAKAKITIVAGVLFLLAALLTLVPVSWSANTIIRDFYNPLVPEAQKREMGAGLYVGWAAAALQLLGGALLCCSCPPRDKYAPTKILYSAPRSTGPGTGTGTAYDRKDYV

human CLDN4 with C-terminal monomeric GFP tag on RKO-KO cells (human), sequence (O14493 whole entry): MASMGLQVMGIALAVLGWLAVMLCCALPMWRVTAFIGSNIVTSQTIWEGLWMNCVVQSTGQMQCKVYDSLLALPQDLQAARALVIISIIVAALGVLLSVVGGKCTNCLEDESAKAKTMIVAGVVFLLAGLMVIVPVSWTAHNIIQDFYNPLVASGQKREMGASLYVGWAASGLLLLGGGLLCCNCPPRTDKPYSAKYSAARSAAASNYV

B1: 906-009_LNGFR anti-claudin-3 chimeric antigen receptor (scFv orientation L-H, short hCD8 spacer), on T cells (protein, part only; not given: linker, spacer and signaling domains, not shown: large carriers)
chain, part: DIQMTQSPSSLSASVGDRVTITCKASQDINRYIAWYQQKPGKAPKLLIHYTSTLQPGVPSRFSGSGSGTDFTLTISSLQPEDFATYYCLQYETLYSFGQGTKLEIKQVQLVQSGAEVKKPGSSVKVSCKASGYTFTNYWVHWVRQAPGQGLEWMGRIEPNSSGSQYNEKFKNRVTITADKSTSTAYMELSSLRSEDTAVYYCARGVMVPLDYWGQGTLVTVSS
IFNγ as % of IFNγ in CLDN3 WT (24 h co-culture, normalised to untransduced T cells) [1]: 104%
% Live Cells at Assay Endpoint (90 hrs, donor 0372470) [2]: 94.7%
% Live Cells at Assay Endpoint (120 hrs, donor 0372470) [2]: 90.7%
IFNγ secretion fold change, anti-claudin-3 CAR-T cells vs anti-CD19 CAR-T cells [2]: 25.1 fold
IFNγ secretion fold change, anti-claudin-3 CAR-T cells vs untransduced T cells [2]: 29.2 fold
IFNγ as % of IFNγ in CLDN3 WT (24 h co-culture, normalised to untransduced T cells) [3]: 79.7%
IFNγ as % of IFNγ in CLDN3 WT (24 h co-culture, normalised to untransduced T cells) [4]: 71.5%
IFNγ as % of IFNγ in CLDN3 WT (24 h co-culture, normalised to untransduced T cells) [5]: 72.8%
% Live Cells at Assay Endpoint (40 hrs, donor 92024) [6]: 96.7%
% Live Cells at Assay Endpoint (70 hrs, donor D5) [6]: 96.3%
% Live Cells at Assay Endpoint (96 hrs, donor C1700979) [6]: 92.7%
% Live Cells at Assay Endpoint (96 hrs, donor C1700980) [6]: 101%
IFNγ secretion fold change, anti-claudin-3 CAR-T cells vs anti-CD19 CAR-T cells [6]: 14.3 fold
IFNγ secretion fold change, anti-claudin-3 CAR-T cells vs untransduced T cells [6]: 11.3 fold
IFNγ as % of IFNγ in CLDN3 WT (24 h co-culture, normalised to untransduced T cells) [7]: 107%
IFNγ as % of IFNγ in CLDN3 WT (24 h co-culture, normalised to untransduced T cells) [8]: 101%
% Live Cells at Assay Endpoint (40 hrs, donor 92024) [9]: 96.3%
% Live Cells at Assay Endpoint (96 hrs, donor C1700979) [9]: 96%
% Live Cells at Assay Endpoint (96 hrs, donor C1700980) [9]: 100%
IFNγ secretion fold change, anti-claudin-3 CAR-T cells vs anti-CD19 CAR-T cells [9]: 10.9 fold
IFNγ secretion fold change, anti-claudin-3 CAR-T cells vs untransduced T cells [9]: 2.59 fold
IFNγ as % of IFNγ in CLDN3 WT (24 h co-culture, normalised to untransduced T cells) [10]: 3.56%
IFNγ as % of IFNγ in CLDN3 WT (24 h co-culture, normalised to untransduced T cells) [11]: 61.6%
IFNγ as % of IFNγ in CLDN3 WT (24 h co-culture, normalised to untransduced T cells) [12]: 0.11%
IFNγ as % of IFNγ in CLDN3 WT (24 h co-culture, normalised to untransduced T cells) [13]: 95.5%
IFNγ as % of IFNγ in CLDN3 WT (24 h co-culture, normalised to untransduced T cells) [14]: 95.2%
IFNγ as % of IFNγ in CLDN3 WT (24 h co-culture, normalised to untransduced T cells) [15]: 86.3%
IFNγ as % of IFNγ in CLDN3 WT (24 h co-culture, normalised to untransduced T cells) [16]: 91.3%
% Live Cells at Assay Endpoint (40 hrs, donor 92024) [17]: 16.3%
% Live Cells at Assay Endpoint (70 hrs, donor D5) [17]: 0%
% Live Cells at Assay Endpoint (90 hrs, donor 0372470; RKO KO hCLDN3 L14) [17]: -6%
% Live Cells at Assay Endpoint (96 hrs, donor C1700979; RKO KO hCLDN3 L14) [17]: 29%
% Live Cells at Assay Endpoint (96 hrs, donor C1700980; RKO KO hCLDN3 L14) [17]: 57.3%
% Live Cells at Assay Endpoint (120 hrs, donor 0372470) [17]: 20.3%
IFNγ secretion fold change, anti-claudin-3 CAR-T cells vs anti-CD19 CAR-T cells [17]: 2500 fold
IFNγ secretion fold change, anti-claudin-3 CAR-T cells vs untransduced T cells [17]: 1350 fold
IFNγ as % of IFNγ in CLDN3 WT (24 h co-culture, normalised to untransduced T cells) [18]: 66.1%
% Live Cells at Assay Endpoint (40 hrs, donor 92024) [19]: 89%
% Live Cells at Assay Endpoint (70 hrs, donor D5) [19]: 97.7%
% Live Cells at Assay Endpoint (90 hrs, donor 0372470) [19]: 94.5%
% Live Cells at Assay Endpoint (96 hrs, donor C1700979) [19]: 71%
% Live Cells at Assay Endpoint (96 hrs, donor C1700980) [19]: 86%
% Live Cells at Assay Endpoint (120 hrs, donor 0372470) [19]: 81.7%
IFNγ secretion fold change, anti-claudin-3 CAR-T cells vs anti-CD19 CAR-T cells [19]: 439 fold
IFNγ secretion fold change, anti-claudin-3 CAR-T cells vs untransduced T cells [19]: 521 fold
